This assay addresses SH2 domain (143-249) of CSRC (UniProt P12931). Description: ITC.

In general, stoichiometry N refers to the number of molecules, sites or subunits per partner or assembly. Consider “human calmodulin (from UniProt P0DP23 1-149) (natural protein)”, for which the stoichiometry N was 1.

These data come from publication PMC4747798.
